Positions count from the first letter of the chain named.
Experiments:
Assay in all cases: EMSA
Settings in all cases: tags: MBP fusion
ZFP SBS#575 = molecular target: T1, ZFP SBS#575 (synthetic)
T1 chain: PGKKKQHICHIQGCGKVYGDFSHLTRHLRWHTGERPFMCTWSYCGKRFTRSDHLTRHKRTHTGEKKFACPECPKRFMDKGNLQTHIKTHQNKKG
In short: (§1)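 Purified ZFP was titrated against labeled double-stranded target (1 nM or lower, at least 10-fold below expected Kd) carrying the natural binding site with flanks. Binding buffer was 10 mM Tris pH 7.5, 100 mM KCl, 1 mM MgCl2, 0.1 mM ZnCl2, 5 mM DTT, 10% glycerol, 0.02% BSA, with equilibration for at least 45 min. Bound and free target were separated on a 10% polyacrylamide gel.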

ZFP SBS#518 = ZFP SBS#518 (synthetic, UniProt P08047)
Sequence of ZFP SBS#518 (P08047 other isoform, or with tags, fused parts or gaps): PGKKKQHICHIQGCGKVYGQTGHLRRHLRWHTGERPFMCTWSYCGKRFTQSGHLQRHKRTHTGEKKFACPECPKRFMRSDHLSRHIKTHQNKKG
In short: as §1

ZFP SBS#522 = ZFP SBS#522 (synthetic, UniProt P08047)
In short: as §1

ZFP SBS#583 = ZFP SBS#583 (synthetic)
Sequence of ZFP SBS#583 (synthetic) (chain, as listed by the source): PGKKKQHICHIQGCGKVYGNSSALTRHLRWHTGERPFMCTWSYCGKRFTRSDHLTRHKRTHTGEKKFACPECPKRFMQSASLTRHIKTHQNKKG
In short: as §1

ZFP SBS#520 = ZFP SBS#520 (synthetic)
In short: as §1

ZFP SBS#516 = ZFP SBS#516 (synthetic, UniProt P08047)
In short: as §1

ZFP SBS#574 = molecular target: T2, ZFP SBS#574 (synthetic)
T2 chain: T1 chain with D20R, F21S, S22D
In short: as §1

ZFP SBS#517 = ZFP SBS#517 (synthetic, UniProt P08047)
Sequence of ZFP SBS#517 (P08047 other isoform, or with tags, fused parts or gaps): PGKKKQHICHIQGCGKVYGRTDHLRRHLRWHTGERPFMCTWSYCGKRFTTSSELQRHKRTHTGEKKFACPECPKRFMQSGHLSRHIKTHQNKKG
In short: as §1

ZFP SBS#538 = ZFP SBS#538 (synthetic)
In short: as §1

ZFP SBS#579 = molecular target: T3, ZFP SBS#579 (synthetic)
T3 chain: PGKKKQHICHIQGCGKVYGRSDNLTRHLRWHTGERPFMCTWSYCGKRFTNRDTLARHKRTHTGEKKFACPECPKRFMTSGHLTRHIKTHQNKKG
In short: as §1

ZFP SBS#515 = ZFP SBS#515 (synthetic)
In short: as §1

ZFP SBS#519 = ZFP SBS#519 (synthetic, UniProt P08047)
Sequence of ZFP SBS#519 (P08047 other isoform, or with tags, fused parts or gaps): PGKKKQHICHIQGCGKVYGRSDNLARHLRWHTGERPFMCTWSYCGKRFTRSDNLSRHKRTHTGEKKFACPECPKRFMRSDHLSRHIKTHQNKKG
In short: as §1

ZFP SBS#532 = ZFP SBS#532 (synthetic, UniProt P08047)
Sequence of ZFP SBS#532 (P08047 other isoform, or with tags, fused parts or gaps): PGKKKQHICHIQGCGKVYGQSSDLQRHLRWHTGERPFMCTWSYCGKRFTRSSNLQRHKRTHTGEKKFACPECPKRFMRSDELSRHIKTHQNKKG
In short: as §1

ZFP SBS#531 = molecular target: T4, ZFP SBS#531 (synthetic, UniProt P08047)
T4 chain: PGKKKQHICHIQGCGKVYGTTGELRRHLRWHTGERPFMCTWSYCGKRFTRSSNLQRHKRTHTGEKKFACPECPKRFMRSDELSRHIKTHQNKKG
In short: as §1

ZFP SBS#534 = ZFP SBS#534 (synthetic)
In short: as §1

ZFP SBS#533 = ZFP SBS#533 (synthetic)
Sequence of ZFP SBS#533 (synthetic) (chain, as listed by the source): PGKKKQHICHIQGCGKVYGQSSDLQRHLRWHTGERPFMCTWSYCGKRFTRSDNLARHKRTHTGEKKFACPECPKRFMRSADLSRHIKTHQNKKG
In short: as §1

ZFP SBS#577 = ZFP SBS#577 (synthetic, UniProt P08047)
In short: as §1

ZFP SBS#581 = molecular target: T5, ZFP SBS#581 (synthetic)
T5 chain: T1 chain with D20Q, F21S, H53S, T55L
In short: as §1

ZFP SBS#576 = ZFP SBS#576 (synthetic)
Sequence of ZFP SBS#576 (synthetic) (chain, as listed by the source): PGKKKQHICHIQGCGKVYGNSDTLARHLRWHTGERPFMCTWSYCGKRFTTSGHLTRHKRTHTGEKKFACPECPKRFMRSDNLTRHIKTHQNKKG
In short: as §1

ZFP SBS#540 = molecular target: T6, ZFP SBS#540 (synthetic)
T6 chain: T1 chain with F21R, R50Q, D52G, H53S, D78R, K79S, G80D, N81H, Q83T
In short: as §1

ZFP SBS#587 = ZFP SBS#587 (synthetic)
Sequence of ZFP SBS#587 (synthetic) (chain, as listed by the source): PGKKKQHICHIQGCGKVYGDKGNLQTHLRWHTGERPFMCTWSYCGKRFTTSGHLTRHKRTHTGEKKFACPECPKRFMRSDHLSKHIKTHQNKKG
In short: as §1

ZFP SBS#570 = molecular target: T7, ZFP SBS#570 (synthetic)
T7 chain: T3 chain with R20D, D22G, N23H, N50Q, D52S, T53N, A55V, T78R, G80D
In short: as §1

B1: TACGTGGGCT (dsDNA)
DNA 1: TACGTGGGCT
DNA 2: AGCCCACGTA
With B1 as the binder, how does the Kd (ZFP SBS#575) read?
The Kd was 472 nM.

B2: GGGGGAGGAG (dsDNA)
DNA 1: GGGGGAGGAG
DNA 2: CTCCTCCCCC
Which Kd (ZFP SBS#518) does the source give for B2 here?
The Kd was 30 nM.

B3: GATGAGGCA (dsDNA)
DNA 1: GATGAGGCA
DNA 2: TGCCTCATC
B3 was tested. Which Kd (ZFP SBS#522) did it give?
Its Kd is 200 nM.

B4: GTAGGGGTTG (dsDNA)
DNA 1: GTAGGGGTTG
DNA 2: CAACCCCTAC
For B4, which Kd (ZFP SBS#583) is on record?
Its Kd is 46 nM.

B5: GGAGGAGAT (dsDNA)
DNA 1: GGAGGAGAT
DNA 2: ATCTCCTCC
With B5 as the binder, how does the Kd (ZFP SBS#520) read?
Its Kd is 300 nM.

B6: GGAGGAGCT (dsDNA)
DNA 1: GGAGGAGCT
DNA 2: AGCTCCTCC
How did the Kd (ZFP SBS#516) turn out when B6 was run?
The Kd was 700 nM.

B7: TACGTGGGGT (dsDNA)
DNA 1: TACGTGGGGT
DNA 2: ACCCCACGTA
With B7 as the binder, how does the Kd (ZFP SBS#574) read?
Its Kd is 25 nM.

B8: GGAGCTGGGG (dsDNA)
DNA 1: GGAGCTGGGG
DNA 2: CCCCAGCTCC
Which Kd (ZFP SBS#517) does the source give for B8 here?
Its Kd is 50 nM.

B9: GCAGAGGCTT (dsDNA)
DNA 1: GCAGAGGCTT
DNA 2: AAGCCTCTGC
How did the Kd (ZFP SBS#538) turn out when B9 was run?
The Kd was 70 nM.

B10: GGGGTTGAGG (dsDNA)
DNA 1: GGGGTTGAGG
DNA 2: CCTCAACCCC
For B10, which Kd (ZFP SBS#579) is on record?
The Kd was 200 nM.

B11: TGGGAGGAGT (dsDNA)
DNA 1: TGGGAGGAGT
DNA 2: ACTCCTCCCA
With B11 as the binder, how does the Kd (ZFP SBS#515) read?
The Kd was 0.5 nM.

B12: GGGGAGGAGA (dsDNA)
DNA 1: GGGGAGGAGA
DNA 2: TCTCCTCCCC
For B12, which Kd (ZFP SBS#519) is on record?
The Kd was 0.3 nM.

B13: GCGGAGGCTT (dsDNA)
DNA 1: GCGGAGGCTT
DNA 2: AAGCCTCCGC
With B13 as the binder, how does the Kd (ZFP SBS#532) read?
The Kd was 100 nM.

What about the Kd (ZFP SBS#531) of the same binder?
Its Kd is 160 nM.

And the Kd (ZFP SBS#534)?
The Kd was 10 nM.

What about the Kd (ZFP SBS#533) of the same binder?
The Kd was 7 nM.

B14: GGAGCGGGGA (dsDNA)
DNA 1: GGAGCGGGGA
DNA 2: TCCCCGCTCC
Which Kd (ZFP SBS#577) does the source give for B14 here?
Its Kd is 200 nM.

B15: TACGTGGGTT (dsDNA)
DNA 1: TACGTGGGTT
DNA 2: AACCCACGTA
For B15, which Kd (ZFP SBS#581) is on record?
The Kd was 382 nM.

B16: GAGGGTGTTG (dsDNA)
DNA 1: GAGGGTGTTG
DNA 2: CAACACCCTC
Which Kd (ZFP SBS#576) does the source give for B16 here?
The Kd was 200 nM.

B17: TGGGCAGGCC (dsDNA)
DNA 1: TGGGCAGGCC
DNA 2: GGCCTGCCCA
For B17, which Kd (ZFP SBS#540) is on record?
Its Kd is 55 nM.

B18: GGGGGTTACG (dsDNA)
DNA 1: GGGGGTTACG
DNA 2: CGTAACCCCC
B18 was tested. Which Kd (ZFP SBS#587) did it give?
Its Kd is 500 nM.

B19: GGGGAAGGCT (dsDNA)
DNA 1: GGGGAAGGCT
DNA 2: AGCCTTCCCC
B19 was tested. Which Kd (ZFP SBS#570) did it give?
Its Kd is 20 nM.
